Measurements as given in article PMC7801473 (2021).

Experiments:
[1] = target: ASC^CARD (self-interaction; state of second copy not shown); assay: M2H (mammalian two-hybrid, luciferase); conditions: HEK293T cells; luciferase normalized to Renilla; parent: est. 4.2; read off a plot
[2] = target: NLRP1^CARD (human) (UniProt Q9C000); assay: SEC-MALS; Superdex 200 10/30, 500 mM NaCl, 20 mM CHES-HCl pH 9.0, 500 uL at 0.5 mg/mL, 0.5 mL/min; monomer to dimer
[3] = target: MBP-ASC^CARD (human) (UniProt Q9ULZ3); assay: SEC; His-tagged MBP-ASC^CARD incubated with a threefold concentration of untagged NLRP1^CARD for 4 h, first purified by Ni-affinity chromatography, then Superdex gel filtration; complex in the void (~9 mL); also run at 0.15, 0.5 and 1.0 M NaCl (complex decreased with salt); ratio from gray scales of the PAGE gel
MBP-ASC^CARD (human), sequence (Q9ULZ3 95-195): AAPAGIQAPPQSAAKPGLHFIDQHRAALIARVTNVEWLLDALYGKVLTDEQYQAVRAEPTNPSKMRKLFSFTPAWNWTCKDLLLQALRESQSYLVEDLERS

Substance | response (fold of negative control) [1] | stoichiometry N [2] | stoichiometry N (NLRP1^CARD : ASC^CARD) [3]
ASC^CARD (M2H fusion) (from UniProt Q9ULZ3-1) R125A; T127A | 1.2 | – | –
ASC^CARD (M2H fusion) (from UniProt Q9ULZ3-1) D134K | 1.4 | – | –
ASC^CARD (M2H fusion) (from UniProt Q9ULZ3-1) W169G; N170A | 1.2 | – | –
ASC^CARD (M2H fusion) (from UniProt Q9ULZ3-1) N128A; E130R | 1.2 | – | –
ASC^CARD (M2H fusion) (from UniProt Q9ULZ3-1) R160E | 1.2 | – | –
ASC^CARD (M2H fusion) (from UniProt Q9ULZ3-1) D143A; E144A | 1.2 | – | –
ASC^CARD (M2H fusion) (from UniProt Q9ULZ3-1) R119D | 1.3 | – | –
NLRP1^CARD (from UniProt Q9C000-1 1397-1462) (domain or fragment) | – | 2 | 0.5
